The record followed here is patent US20240287196A1 (published 2024).

The target of assay [1] is T1, human ALK7-Fc comprising protein (human, UniProt Q8NER5 22-113).
T1 construct: also called hALK7-Fc; not shown: Fc part and any linker
T1 sequence: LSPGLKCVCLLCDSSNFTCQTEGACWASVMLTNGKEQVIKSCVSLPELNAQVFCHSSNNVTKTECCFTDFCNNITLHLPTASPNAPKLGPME
Kind of assay: SPR (Biacore T100/T200); antibody captured on FAB chip, ALK7-Fc comprising protein as analyte; 1:1 model. On the procedure:
(§1) Experiments were performed using a Biacore T100/T200 biosensor (Biacore/GE Healthcare) at 25 and 37° C. ALK7 antibodies were captured on custom made FAB chip. A concentration series of ALK7-Fc comprising protein was injected over the flow cells at a flow rate of […]. To obtain kinetic rate constants the corrected data were fit to a 1:1 interaction model using BiaEvaluation software (GE Healthcare). The equilibrium binding constant KD was determined by the ratio of binding rate constants kd/ka.

The target of assay [2] is T2, rat Alk7-Fc comprising protein (rat, UniProt P70539 26-113).
T2 construct: not shown: Fc part and any linker
T2 sequence: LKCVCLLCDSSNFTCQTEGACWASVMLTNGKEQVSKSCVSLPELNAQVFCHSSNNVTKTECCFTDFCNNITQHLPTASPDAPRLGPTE
The description is as above. Here is the method:
as §1

The target of assay [3] is T3, ALK7-Fc comprising protein (Homo sapiens (Human), UniProt Q8NER5 21-113).
T3 construct: not shown: The Fc part and any linker of the fusion; The construct's exact ALK7 limits are not seen either
T3 sequence: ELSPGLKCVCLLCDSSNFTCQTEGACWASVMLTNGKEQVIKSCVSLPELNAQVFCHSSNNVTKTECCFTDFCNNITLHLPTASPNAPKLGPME
Nature of the assay: SPR (Biacore T100/T200), 25 °C; antibody captured on FAB chip, ALK7-Fc comprising protein as analyte; 1:1 model. Here is the method: Experiments were performed using a Biacore T100/T200 biosensor (Biacore/GE Healthcare) at 25 and 37° C. ALK7 antibodies were captured on custom made FAB chip. A concentration series of ALK7-Fc comprisingprotein was injected over the flow cells at a flow rate of […]. To obtain kinetic rate constants the corrected data were fit to a 1:1 interaction model using BiaEvaluation software (GE Healthcare). The equilibrium binding constant KD was determined by the ratio of binding rate constants kd/kₐ.

The target of assay [4] is T4, ALK7 on differentiated 3T3-L1 adipocytes (UniProt Q8K348 26-493, limits assumed).
T4 sequence (looked up): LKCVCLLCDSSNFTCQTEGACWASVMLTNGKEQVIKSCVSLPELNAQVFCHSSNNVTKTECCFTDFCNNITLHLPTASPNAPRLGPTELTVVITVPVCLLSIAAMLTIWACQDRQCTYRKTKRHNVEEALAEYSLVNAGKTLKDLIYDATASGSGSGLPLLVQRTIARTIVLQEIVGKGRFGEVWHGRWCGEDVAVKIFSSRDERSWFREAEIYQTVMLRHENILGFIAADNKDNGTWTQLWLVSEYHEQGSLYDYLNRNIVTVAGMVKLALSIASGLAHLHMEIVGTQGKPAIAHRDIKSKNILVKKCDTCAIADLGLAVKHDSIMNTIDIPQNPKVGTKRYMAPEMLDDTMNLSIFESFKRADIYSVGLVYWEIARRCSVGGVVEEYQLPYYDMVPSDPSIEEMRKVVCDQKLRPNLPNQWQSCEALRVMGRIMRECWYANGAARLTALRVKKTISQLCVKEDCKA
Kind of assay: cell-based or functional assay.

Assay [5] concerns the target T1, human ALK7-Fc comprising protein. Nature of the assay: SPR (Biacore T100/T200); antibody captured on FAB chip, ALK7-Fc comprising protein as analyte; 1:1 model. The source holds these as a separate data set.

Read-outs that look alike come from different tables or passages of the source.

B1: K01 (antibody, V domains shown)
VH: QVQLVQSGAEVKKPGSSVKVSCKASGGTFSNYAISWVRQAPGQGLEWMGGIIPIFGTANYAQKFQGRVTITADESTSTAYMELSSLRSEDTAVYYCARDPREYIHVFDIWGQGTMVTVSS
VL: DIQMTQSPSSLSASVGDRVTITCRASQSISSYLNWYQQKPGKAPKLLIYGASSLQSGVPSRFSGSGSGTDFTLTISSLQPEDFATYYCQQAYSFPWTFGGGIKVEIK
notes: also called antibody K01
In assay [1], B1 displayed a dissociation constant (Kd) of 201 nM, a dissociation rate constant (koff) of 0.00916 s⁻¹ and a kon of 45600 M⁻¹ s⁻¹. Moreover, in assay [2], binding was put at a Kd of 8.14 nM, the off-rate (koff) worked out at 0.000139 s⁻¹ and the association rate constant (kon) came out at 17100 M⁻¹ s⁻¹.

B2: J02 (antibody, V domains shown)
VH: EVQLLESGGGLVQPGGSLRLSCAASGFTFSVYAMSWVRQAPGKGLEWVSAISGSGDSTVYADSVKGRFTISRDNSKNTLYLQMNSLRAEDTAVYYCAKPSYQPIYWGQGTLVTVSS
VL: DIQMTQSPSSVSASVGDRVTITCRASQGISSWLAWYQQKPGKAPKLLIYAASSLQSGVPSRFSGSGSGTDFTLTISSLQPEDFATYYCQQAASYPLTFGGGTKVEIK
notes: also called mAb J02; antibody J02
Take B2: in assay [3], the Kd came out at 5.33 nM, the koff was 0.000126 s⁻¹ and the on-rate constant (kon) was 23600 M⁻¹ s⁻¹.

B3: K02 (antibody, V domains shown)
VH: QVQLVQSGAEVKKPGSSVKVSCKASGGTFSSSAIGWVRQAPGQGLEWMGGIWPIFGTALYAQKFQGRVTITADESTSTAYMELSSLRSEDTAVYYCARDPREYIHVFDIWGQGTMVTVSS
VL: DIQMTQSPSSLSASVGDRVTITCRASQSISSYLNWYQQKPGKAPKLLIYGASSLQSGVPSRFSGSGSGTDFTLTISSLQPEDFATYYCQQAYSFPWTFGGGIKVEIK
notes: also called mAb K02; antibody K02
Take B3: in assay [3], the Kd came to 12.4 nM, the koff was 0.000291 s⁻¹ and the on-rate constant (kon) turned out to be 23500 M⁻¹ s⁻¹.

B4: G04 (antibody, V domains shown)
VH: QVQLVQSGAEVKKPGSSVKVSCKASGGTFSSYAISWVRQAPGQGLEWMGGIIPIFGTASYAQKFQGRVTITADESTSTAYMELSSLRSEDTAVYYCARTPYYDSSGYLDVWGQGTMVTVSS
VL: DIQMTQSPSSLSASVGDRVTITCQASQDISNYLNWYQQKPGKAPKLLIYDASNLATGVPSRFSGSGSGTDFTFTISSLQPEDIATYYCQQSLDLPPTFGGGTKVEIK
notes: also called antibody G04
As to B4, in assay [4], the “Increase in lipolysis activity (%)” value was 45.8%. In assay [5], binding was put at a Kd of 247 nM, the off-rate (koff) is 0.0222 s⁻¹ and the kon amounted to 89600 M⁻¹ s⁻¹.

B5: G05 (antibody, human IgG1, kappa, V domains shown)
VH: QVQLVQSGAEVKKPGSSVKVSCKASGGTFSGQAISWVRQAPGQGLEWMGGIIPSFGTARYAQKFQGRVTITADESTSTAYMELSSLRSEDTAVYYCARTPYYDSSGYLDVWGQGTMVTVSS
VL: DIQMTQSPSSLSASVGDRVTITCQASHDIDNYLNWYQQKPGKAPKLLIYYASNLKTGVPSRFSGSGSGTDFTFTISSLQPEDIATYYCQQSRASPPTFGGGTKVEIKR
notes: also called mAb G05; antibody G05
On to B5, for which, in assay [3], the Kd was found to be 0.87 nM, the koff worked out at 2.59e-05 s⁻¹ and the on-rate (kon) turned out to be 29900 M⁻¹ s⁻¹.

B6: C03 (antibody, human IgG1, kappa, V domains shown)
VH: QLQLQESGPGLVKPSETLSLTCTVSGGSISSSAYYWAWIRQPPGKGLEWIGSIYLSGSTTYNPSLKSRVTISVDTSKNQFSLKLSSVTAADTAVYYCARDGRYQSRSPDYYYGMDVWGQGTTVTVSS
VL: EIVLTQSPGTLSLSPGERATLSCKASQSVSSSYLAWYQQKPGQAPRLLIYGAFSRANGIPDRFSGSGSGTDFTLTISRLEPEDFAVYYCQQLVSYPFTFGGGTKVEIKR
notes: also called mAb C03; antibody C03
In assay [3], B6 registered a Kd of 0.33 nM, a koff of 1.27e-05 s⁻¹ and an association rate constant (kon) of 38300 M⁻¹ s⁻¹.

B7: L01 (antibody, V domains shown)
VH: QVQLVQSGAEVKKPGSSVKVSCKASGGTFSSYAISWVRQAPGQGLEWMGSIIPIFGTANYAQKFQGRVTITADESTSTAYMELSSLRSEDTAVYYCARDPVGARYEVFDYWGQGTLVTVSS
VL: EIVMTQSPATLSVSPGERATLSCRASQSVSSNLAWYQQKPGQAPRLLIYSASTRATGIPARFSGSGSGTEFTLTISSLQSEDFAVYYCQQANTFPLTFGGGTKVEIK
notes: also called antibody L01
As for B7, in assay [1], binding was put at a Kd of 15.1 nM and the association rate constant (kon) was determined as 24300 M⁻¹ s⁻¹. In addition, in assay [2], the Kd was 22.9 nM, the dissociation rate constant (koff) was found to be 0.000271 s⁻¹ and the kon was determined as 11800 M⁻¹ s⁻¹.

B8: L02 (antibody, V domains shown)
VH: QVQLVQSGAEVKKPGASVKVSCKASGYTFAGYNMHWVRQAPGQGLEWVGIINPNSGWTNYAQKFQGRVTMTRDTSVSAAYMELSRLRSDDTAVYYCARDPVGARYEVFDYWGQGTLVTVSS
VL: EIVMTQSPATLSVSPGERATLSCRASQSVSSALAWYQQKPGQAPRLLIYSAFTRASGIPARFSGSGSGTEFTLTISSLQSEDFAVYYCQQAWAFPLTFGGGTKVEIK
notes: also called mAb L02; antibody L02
In assay [3], B8 showed a Kd of 0.44 nM, an off-rate (koff) of 1.21e-05 s⁻¹ and a kon of 27400 M⁻¹ s⁻¹.
